B1: RAD51 recombinase (natural protein)
chain: MAMQMQLEANADTSVEEESFGPQPISRLEQCGINANDVKKLEEAGFHTVEAVAYAPKKELINIKGISEAKADKILAEAAKLVPMGFTTATEFHQRRSEIIQITTGSKELDKLLQGGIETGSITEMFGEFRTGKTQICHTLAVTCQLPIDRGGGEGKAMYIDTEGTFRPERLLAVAERYGLSGSDVLDNVAYARAFNTDHQTQLLYQASAMMVESRYALLIVDSATALYRTDYSGRGELSARQMHLARFLRMLLRLADEFGVAVVITNQVVAQVDGAAMFAADPKKPIGGNIIAHASTTRLYLRKGRGETRICKIYDSPCLPEAEAMFAINADGVGDAKD

Experiment [1] has as its target T1, full-length RAD51AP1 variant in which both Site-N and Site-C are mutated (NC) (UniProt Q96B01 1-352).
T1 chain: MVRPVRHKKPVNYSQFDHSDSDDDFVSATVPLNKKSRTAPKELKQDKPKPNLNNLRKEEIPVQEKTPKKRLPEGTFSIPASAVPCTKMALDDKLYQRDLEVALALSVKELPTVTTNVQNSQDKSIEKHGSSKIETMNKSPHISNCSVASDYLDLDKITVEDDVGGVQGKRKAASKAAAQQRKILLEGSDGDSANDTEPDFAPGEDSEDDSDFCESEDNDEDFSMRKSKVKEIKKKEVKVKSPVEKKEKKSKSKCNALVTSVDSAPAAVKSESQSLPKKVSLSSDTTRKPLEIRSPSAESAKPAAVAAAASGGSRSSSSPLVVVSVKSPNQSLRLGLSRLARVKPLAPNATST
The experiment in a line: BLI.

Experiment [2] concerns the target T2, full-length RAD51AP1-H346A (Site-C mutant) (UniProt Q96B01 1-352, H346A).
T2 sequence: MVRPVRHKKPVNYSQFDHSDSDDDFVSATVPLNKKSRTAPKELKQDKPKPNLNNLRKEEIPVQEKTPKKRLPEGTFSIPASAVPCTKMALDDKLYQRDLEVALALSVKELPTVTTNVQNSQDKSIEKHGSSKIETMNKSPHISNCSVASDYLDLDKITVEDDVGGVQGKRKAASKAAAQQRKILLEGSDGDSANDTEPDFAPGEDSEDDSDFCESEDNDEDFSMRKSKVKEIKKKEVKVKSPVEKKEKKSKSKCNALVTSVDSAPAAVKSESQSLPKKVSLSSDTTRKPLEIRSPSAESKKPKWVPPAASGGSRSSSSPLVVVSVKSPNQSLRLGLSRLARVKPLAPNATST
Kind of experiment: BLI. On the technique in general: Biolayer interferometry detects binding as a change in optical thickness at a sensor tip.

The target in experiment [3] is T3, full-length RAD51AP1 (RAD51 Associated Protein 1), wild type (UniProt Q96B01 1-352).
T3 sequence: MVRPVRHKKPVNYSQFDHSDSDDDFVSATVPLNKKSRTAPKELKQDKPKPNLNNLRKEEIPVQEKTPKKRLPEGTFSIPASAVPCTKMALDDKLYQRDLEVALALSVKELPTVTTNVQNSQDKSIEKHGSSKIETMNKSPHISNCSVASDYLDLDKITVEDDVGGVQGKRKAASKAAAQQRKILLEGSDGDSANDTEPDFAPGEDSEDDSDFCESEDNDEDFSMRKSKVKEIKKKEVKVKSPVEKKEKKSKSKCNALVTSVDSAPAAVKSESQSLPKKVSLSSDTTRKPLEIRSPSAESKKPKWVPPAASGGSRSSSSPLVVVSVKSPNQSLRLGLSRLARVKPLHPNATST
Kind of experiment: BLI.

The target of the experiment “RAD51 recombinase” is B1. Kind of experiment: pull-down.

The term Kd denotes the equilibrium constant for the complex coming apart. Low values mean higher affinity, high ones lower affinity. For the molecule B1, the “fold reduction in affinity against wild type” value in experiment [1] is approximately 4 fold. Besides, the “fold decrease in binding affinity against wild type” value in experiment [2] is approximately 2.5 fold. In experiment [3], the Kd is approximately 600 nM.

B2: full-length RAD51AP1 Site-N mutant (K300, K303, W304, P306, P307 to alanine) (natural protein)
chain: MVRPVRHKKPVNYSQFDHSDSDDDFVSATVPLNKKSRTAPKELKQDKPKPNLNNLRKEEIPVQEKTPKKRLPEGTFSIPASAVPCTKMALDDKLYQRDLEVALALSVKELPTVTTNVQNSQDKSIEKHGSSKIETMNKSPHISNCSVASDYLDLDKITVEDDVGGVQGKRKAASKAAAQQRKILLEGSDGDSANDTEPDFAPGEDSEDDSDFCESEDNDEDFSMRKSKVKEIKKKEVKVKSPVEKKEKKSKSKCNALVTSVDSAPAAVKSESQSLPKKVSLSSDTTRKPLEIRSPSAESAKPAAVAAAASGGSRSSSSPLVVVSVKSPNQSLRLGLSRLARVKPLHPNATST
On to B2, for which the binding result in the experiment with RAD51 recombinase is recorded as “binds”.
